Reference: patent US20110159513A1
Where two headings read alike, the source gives them in different places.

Key:
Test in all cases: cell-based or functional assay
ErbB1 on NCI-ADRr cells [1] = biological target: ErbB1 on NCI-ADRr cells (UniProt P00533)
ErbB1 on NCI-ADRr cells [2] = biological target: ErbB1 on NCI-ADRr cells (UniProt P00533); remark: listed apart in the source
[3] = biological target: ErbB3 on tumour cells (NCI-ADRr, OVCAR8, OVCAR8-HER2) (UniProt P21860)

heparin-binding epidermal growth factor, sequence (Q99075 63-148 limits assumed): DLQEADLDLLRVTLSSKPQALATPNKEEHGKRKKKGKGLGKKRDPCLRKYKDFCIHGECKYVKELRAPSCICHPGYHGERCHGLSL
betacellulin, sequence (P35070 32-111 limits assumed): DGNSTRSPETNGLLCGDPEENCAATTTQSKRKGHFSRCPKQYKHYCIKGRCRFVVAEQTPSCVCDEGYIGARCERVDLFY

| pErbB1 EC50 [nM], NCI-ADRr (ErbB1 on NCI-ADRr cells [1]) | pErbB1 % stimulation at 5 min relative to maximum (ErbB1 on NCI-ADRr cells [2]) | Molecule | other results |
| --- | --- | --- | --- |
| 5.7 nM |  | betacellulin (from UniProt P35070 32-111) (ligand) |  |
| 30 nM |  | transforming growth factor alpha (from UniProt P01135 40-89) (ligand) |  |
| 21 nM |  | heparin-binding epidermal growth factor (from UniProt Q99075 63-148) (ligand) | pErbB1 % stimulation at 5 min relative to maximum (ErbB1 on NCI-ADRr cells [1]): 87% |
|  | 95% | amphiregulin (ligand, UniProt P15514 101-198, looked up) SVRVEQVVKPPQNKTESENTSDKPKRKKKGGKNGKNRRNRKKKNPCNAEFQNFCIHGECKYIEHLEAVTCKCQQEYFGERCGEKSMKTHSMIDSSLSK | pErbB1 EC50 [nM], NCI-ADRr (ErbB1 on NCI-ADRr cells [2]): 37 nM |
|  |  | heregulin HRG1-β (ligand, UniProt Q02297-6 177-241, looked up) SHLVKCAEKEKTFCVNGGECFMVKDLSNPSRYLCKCPNEFTGDRCQNYVMASFYKHLGIEFMEAE | pErbB3 % stimulation at 5 min relative to maximum [3]: 100%; pErbB3 EC50 [nM], NCI-ADRr [3]: 9.9 nM |
|  | 12% | Epigen (ligand, UniProt Q6UW88 23-104, looked up) AAVTVTPPITAQQGNWTVNKTEADNIEGPIALKFSHLCLEDHNSYCINGACAFHHELEKAICRCFTGYTGERCEHLTLTSYA |  |
